Target: T1, human CD47 on OV10 315 cells (human, UniProt Q08722 19-323)
T1 construct: whole, on cells
Assay: FACS for Fc on YFP-negative OV10 315 cells 24 h after infection with SIRPα-Fc-VV

T1 sequence (Q08722 19-323): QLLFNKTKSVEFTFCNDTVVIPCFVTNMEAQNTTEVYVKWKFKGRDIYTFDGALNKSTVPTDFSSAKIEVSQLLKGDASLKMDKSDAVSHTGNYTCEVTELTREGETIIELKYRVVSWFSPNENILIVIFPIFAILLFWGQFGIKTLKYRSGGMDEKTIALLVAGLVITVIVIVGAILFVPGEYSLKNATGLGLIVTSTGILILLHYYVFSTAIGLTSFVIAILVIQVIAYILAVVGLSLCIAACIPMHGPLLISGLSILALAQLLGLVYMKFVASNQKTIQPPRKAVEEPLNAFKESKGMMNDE

B1: SIRPα-IgG4 Fc with derivative (CV1) of SIRPα ectodomain (Fc fusion)
chain: EEELQIIQPDKSVLVAAGETATLRCTITSLFPVGPIQWFRGAGPGRVLIYNQRQGPFPRVTTVSDTTKRNNMDFSIRIGNITPADAGTYYCIKFRKGSPDDVEFKSGAGTELSVRAKPSAAAPPCPPCPAPEFLGGPSVFLFPPKPKDTLMISRTPEVTCVVVDVSQEDPEVQFNWYVDGVEVHNAKTKPREEQFNSTYRVVSVLTVLHQDWLNGKEYKCKVSNKGLPSSIEKTISKAKGQPREPQVYTLPPSQEEMTKNQVSLTCLVKGFYPSDIAVEWESNGQPENNYKTTPPVLDSDGSFFLYSRLTVDKSRWQEGNVFSCSVMHEALHNHYTQKSLSLSPGK
notes: Secreted by tumor cells transduced with the lentiviral vector pCDH.CMV.SIRPα-Fc.EF1.GFPpuro or infected with SIRPα-Fc-VV; It was never purified; also called SIRPα-Fc; SIRPα-FC
Q: Does B1 bind?
A: Result: binds

From US20190119379A1 (BAYLOR COLLEGE OF MEDICINE, published 2019)
